Source: patent US20200031911A1 (MEDANNEX, published 2020)

B1: MDX-L2M2H2 (antibody, human IgG1, kappa, V domains shown)
VH: QVQLVQSGPEVKKPGESLKISCKGSGYTFTNYWIGWVRQAPGKGLEWMGDIYPGGDYTNYNEKFKGQVTISADKSISTAYLQWSSLKASDTAIYYCARWGLGYYFDYWGRGTLVTVSS
VL: DIVMTQTPLSLSVTPGQPASISCRSSQSLENSNAKTYLNWYLQKPGQSPQLLIYGVSNRFSGVPDRFSGSGSGTDFTLKISRVEAEDVGVYYCLQVTHVPYTFGQGTKVEIKR
notes: also called LC2(mod 2)HC2; variant 1 of MDX-L2H2
B2: Mdx001 (antibody, mouse IgG2b, kappa, V domains shown)
VH: QVQLQQSGPELVRPGTSVKMSCKASGYTFTNYWIGWAKQRPGHGLEWIGDIYPGGDYTNYNEKFKGKATLTADKSSSTAYMQFSSLTSEDSAIYYCARWGLGYYFDYWGQGITLTVSS
VL: DAVMTQTPLSLPVSLGDQVSISCRSSQSLENSNGKTYLNWYLQKPGQSPQLLIYGVSNRFSGVLDRFSGSGSGTDFTLKISRVEAEDLGVYFCLQVTHVPYTFGGGTKLEIKR
notes: also called murine anti-Anx-A1 antibody

What was measured:
[1] = target: T1, human annexin A1 (Anx-A1) (human, UniProt P04083 2-346); experiment: Biacore SPR, assay 2 of 3, method of Example 4; second of three experiments
T1 construct: also called full-length human Anx-A1 (ANXA1-002 / ANXA1-003 transcripts)
T1 sequence: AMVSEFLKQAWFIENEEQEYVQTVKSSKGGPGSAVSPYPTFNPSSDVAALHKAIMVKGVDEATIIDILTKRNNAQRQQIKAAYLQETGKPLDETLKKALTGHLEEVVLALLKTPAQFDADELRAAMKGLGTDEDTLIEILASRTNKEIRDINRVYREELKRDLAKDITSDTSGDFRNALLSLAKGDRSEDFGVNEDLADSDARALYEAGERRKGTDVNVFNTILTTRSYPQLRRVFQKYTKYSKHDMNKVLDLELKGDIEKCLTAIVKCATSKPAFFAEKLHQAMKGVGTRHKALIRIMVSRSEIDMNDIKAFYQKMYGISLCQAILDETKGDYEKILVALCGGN
Protocol: (§1) The Mdx001 antibody was immobilised on a chip via a goat anti-mouse IgG. Ligand (Anx-A1) was passed over the immobilised antibody in running buffer. Anx-A1 was used at a concentration of 5, 10, 20, 40 or 80 nM. In each experiment, a total of 150 μl Anx-A1-containing running buffer was passed over the antibody, at a flow rate of 30 μl/min.
(§2) In light of the ELISA results, the LC1(mod 1)HC4 and LC2(mod 1)HC2 antibodies were discarded. […] Binding of LC1(mod 2)HC4 and LC2(mod 2)HC2 to Anx-A1 was quantified by Biacore, using the same method as described in Example 4. As in Example 4, the Biacore experiments were performed in triplicate. […] LC1(mod 2)HC4 was given the name MDX-L1M2H4. […] LC2(mod 2)HC2 was given the name MDX-L2M2H2.

[2] = target: T1, human annexin A1 (Anx-A1); experiment: Biacore SPR, assay 1 of 3, method of Example 4; first of three experiments
Protocol: as §1, §2

[3] = target: T1, human annexin A1 (Anx-A1); experiment: Biacore SPR, average of three assays, method of Example 4; average of the three experiments
Protocol: as §1, §2

[4] = target: T1, human annexin A1 (Anx-A1); experiment: Biacore SPR, assay 3 of 3, method of Example 4; third of three experiments
Protocol: as §1, §2

[5] = target: T1, human annexin A1 (Anx-A1); experiment: Biacore SPR, assay 1 of 3; antibody captured via goat anti-mouse IgG, Anx-A1 at 5-80 nM as analyte, 1 mM CaCl2
Protocol: as §1
(§3) Regeneration was performed using a regeneration buffer, 10 mM glycine-HCl, pH 2. To regenerate the chip, 70 μl regeneration buffer was passed over the chip at a rate of 10 μl/min.
(§4) Experiments were performed in triplicate.

[6] = target: T1, human annexin A1 (Anx-A1); experiment: Biacore SPR, average of three assays; antibody captured, Anx-A1 as analyte
Protocol: as §1, §3, §4

[7] = target: T1, human annexin A1 (Anx-A1); experiment: Biacore SPR, assay 2 of 3; antibody captured via goat anti-mouse IgG, Anx-A1 at 5-80 nM as analyte, 1 mM CaCl2
Protocol: as §1, §3, §4

[8] = target: T1, human annexin A1 (Anx-A1); experiment: Biacore SPR, assay 3 of 3; antibody captured via goat anti-mouse IgG, Anx-A1 at 5-80 nM as analyte, 1 mM CaCl2
Protocol: as §1, §3, §4

| Binder | Kd [1] | Kd [2] | Kd [3] | Kd [4] | Kd [5] | Kd [6] | Kd [7] | Kd [8] |
| --- | --- | --- | --- | --- | --- | --- | --- | --- |
| B1 | 4.37 nM | 4.44 nM | 4.66 nM | 5.17 nM |  |  |  |  |
| B2 |  |  |  |  | 9.43 nM | 8.49 nM | 9.58 nM | 6.46 nM |
